Tests used:
[1] = molecular target: T1, Cy7-NH-e9-c(S-Peg12)oPLGC(Me)AG-r9-c(Cy5)-CONH2 (20, …(Me)AG)
T1 chain: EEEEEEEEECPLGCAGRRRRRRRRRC

[2] = molecular target: T2, Cy7-NH-e9-c(S-Peg12) oDPRSFL-r9-c(Cy5)-CONH2 (5, …)
T2 chain: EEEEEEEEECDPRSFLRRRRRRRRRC

[3] = molecular target: T3, Cy7-NH-e9-c(S-Peg12) oPPRSFL-r9-c(Cy5)-CONH2 (10, …)
T3 chain: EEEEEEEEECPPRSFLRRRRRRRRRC

B1: plasmin (protein)
chain: KVYLSECKTGNGKNYRGTMSKTKNGITCQKWSSTSPHRPRFSPATHPSEGLEENYCRNPDNDPQGPWCYTTDPEKRYDYCDILECEEECMHCSGENYDGKISKTMSGLECQAWDSQSPHAHGYIPSKFPNKNLKKNYCRNPDRELRPWCFTTDPNKRWELCDIPRCTTPPPSSGPTYQCLKGTGENYRGNVAVTVSGHTCQHWSAQTPHTHNRTPENFPCKNLDENYCRNPDGKRAPWCHTTNSQVRWEYCKIPSCDSSPVSTEQLAPTAPPELTPVVQDCYHGDGQSYRGTSSTTTTGKKCQSWSSMTPHRHQKTPENYPNAGLTMNYCRNPDADKGPWCFTTDPSVRWEYCNLKKCSGTEASVVAPPPVVLLPDVETPSEEDCMFGNGKGYRGKRATTVTGTPCQDWAAQEPHRHSIFTPETNPRAGLEKNYCRNPDGDVGGPWCYTTNPRKLYDYCDVPQCAAPSFDCGKPQVEPKKCPGRVVGGCVAHPHSWPWQVSLRTRFGMHFCGGTLISPEWVLTAAHCLEKSPRPSSYKVILGAHQEVNLEPHVQEIEVSRLFLEPTRKDIALLKLSSPAVITDKVIPACLPSPNYVVADRTECFITGWGETQGTFGAGLLKEAQLPVIENKVCNRYEFLNGRVQSTELCAGHLAGGTDSCQGDSGGPLVCFEKDKYILQGVTSWGLGCARPNKPGVYVRVSRFVTWIEGVMRNN
[1]
  peptide cleavage, SDS-PAGE with Cy5/Cy7 ratio imaging: not cleaved by any of the pro-coagulation enzymes
[2]
  kcat/Km: 10000 M⁻¹ s⁻¹
[3]
  kcat/Km, fold lower than for thrombin: 14.3 fold lower kcat/Km

— patent publication US20130078188
